Reference: article PMC10769870, “Bdellovibrio bacteriovorus uses chimeric fibre proteins to recognize and invade a broad range of bacterial hosts” (Nature Microbiology, 2024)

Assays:
[1] = molecular target: the molecule itself; assay: crystal structure; Bd3182_(632–922) crystallised by vapour diffusion at 18 °C in three forms (Morpheus C1, P2_1; Morpheus G12, I2; Proplex E3, another P2_1); the 1.1 Å form is described
[2] = molecular target: the molecule itself; assay: crystal structure; Bd2133_(662–1,031), native and selenomethionine-labelled, Morpheus B3, spacegroup P6_322, 2.5 Å
[3] = molecular target: the molecule itself; assay: crystal structure; Bd2133_(910–1,031), Morpheus A4, spacegroup P2_12_12_1, 1 Å
[4] = molecular target: the molecule itself; assay: crystal structure; Bd1334_(818–1,151), Morpheus C1, spacegroup C2, 2.6 Å
[5] = molecular target: the molecule itself; assay: crystal structure; Bd1334_(914–1,151), PACT B9, spacegroup R3, 1.4 Å
[6] = molecular target: the molecule itself; assay: crystal structure; Bd2439_(837–1,107), PACT H3 (P2_122_1) and MIDASplus E9 (P4); with ethylene glycol (1.6 Å) or GlcNAc–MurNAc (1.84 Å)
[7] = molecular target: the molecule itself; assay: crystal structure; Bd2734_(691–843), JCSG+ A3, spacegroup P2_1, 1.8 Å
[8] = molecular target: the molecule itself; assay: crystal structure; Bd2740_(518–627), MIDAS F1, spacegroup P2_12_12_1, 2.6 Å

B1: Bd3182_(632–782), mature tip region of the MAT (mosaic adhesive trimer) fibre protein Bd3182 (domain or fragment, Bdellovibrio bacteriovorus HD100, UniProt Q6MIH5 632-782, looked up)
chain: GTNDAFSLSFETNNTPRMTIDDVGRVGVGTTAPTSALHVIGTGEVARFVTSATGGVVIDSTALNYNPSLIYRKTNINRWSMMVNAASETGGNAGSNLSILRYDDTGATLGAAVTIDRASGFFGINTAAPAYNIHVTGTAGLSTGSAWTVAS
notes: Bd3182 of Bdellovibrio bacteriovorus HD100, S74-group MAT fibre protein; expressed as residues 632-922, the S74 chaperone/protease domain cuts itself off at catalytic residue S782; the fibre part, labelled 632-782, was crystallised; the model traces P647 to A781; The methods name the cloned construct once as 668-922 and elsewhere as 632-922; also called Bd3182_(632–922) (construct before …)
stoichiometry N [1]: 3

B2: Bd2133_(662–1,031), tip of the NS74 MAT fibre protein Bd2133 (domain or fragment, Bdellovibrio bacteriovorus HD100, UniProt Q6ML84 662-1031, looked up)
chain: NSSGALGLSTSGSERMRIDTSGNLGLGTAAPTSALHVERTQDADTTVQVRNTHDTGTAAGARFIASNEKSGIWFGISGTSNTNTGLGSPGDAYIYNAAGTATGKNLNVINNQTGNIHFFAGSTATGTPRMTITNTGLVGINTAAPLQKLHVENGNMVITGTAPAYQLKENDTTDQNWQMGINNGNLRFATQNDALNSSSDKVVISQAGNVGIGATAPTAKLEVAGTIHSTSGGIKFPDGSVQTTAASGAATWTSLGLTSLGAVSMTTTTEQSFTLPVAAQTASQILVYLRCHSGNASTTGADDIRIYTKEGAATYDHYLLMFPYAGQGAVGYNSDSFWLPKTSDNKIYLAHSMAPGSANSGCNFYITGYK
notes: Bd2133 of Bdellovibrio bacteriovorus HD100, N662 to the C-terminus (K1031); A selenomethionine-labelled form was also crystallised for phasing; source: E. coli BL21 RIPL (DE3), purified (Ni-NTA, TEV, Ni-NTA, Superdex 200)
stoichiometry N [2]: 3

B3: Bd2133_(910–1,031), tip-only variant of Bd2133 (domain or fragment, Bdellovibrio bacteriovorus HD100, UniProt Q6ML84 910-1031, looked up)
chain: AATWTSLGLTSLGAVSMTTTTEQSFTLPVAAQTASQILVYLRCHSGNASTTGADDIRIYTKEGAATYDHYLLMFPYAGQGAVGYNSDSFWLPKTSDNKIYLAHSMAPGSANSGCNFYITGYK
notes: Bd2133 of Bdellovibrio bacteriovorus HD100, β-sandwich tip domain, A910 to the C-terminus (1031); Made by deletion from the plasmid of Bd2133_(662–1,031); also called tip-only variant (A910 onwards); source: E. coli BL21 RIPL (DE3), purified (Ni-NTA, TEV, Ni-NTA, Superdex 200)
binding result [3]: binds

B4: Bd1334_(818–1,151), tip of the NS74 MAT fibre protein Bd1334 (domain or fragment, Bdellovibrio bacteriovorus HD100, UniProt Q6MNC5 818-1151, looked up)
chain: SSAETDFATAVNGNLRFYTAAAGTDSERMRITGSGLVGIGTPAPAVPLQVATRVPSSAVHPNRAGIQAVGEGTDVGGRISALVSSTIEMATFSGYQSAGTLAAPTAVTSGQSLTSLTAFAYNGTQYQSGGNASINFVATEAHTASAGGAKIIFNTTNNGATGSTEKVVIDQNGNVGVGVGAPTAKMDVNGGIKQPNYGIISAVRNSGGVTASMPWTNAYVLAHQGEMHQWVAGGPILQDSVTGCNAGPDAGVKFDSIATSWGGPYKVIFHTTGSNGAIHLEWSGWQVSLKNSAGTELAIGMGQVFATLHYDPAVSNWRVEHMFGRINNTNFTCW
notes: Bd1334 of Bdellovibrio bacteriovorus HD100, S818 to the C-terminus (W1151); The cloning paragraph prints this construct as Bd1334_(818–1,031); everywhere else it is 818–1,151; source: E. coli BL21 RIPL (DE3), purified (Ni-NTA, TEV, Ni-NTA, Superdex 200)
stoichiometry N [4]: 3

B5: Bd1334_(914–1,151) (domain or fragment, Bdellovibrio bacteriovorus HD100, UniProt Q6MNC5 914-1151, looked up)
chain: SAGTLAAPTAVTSGQSLTSLTAFAYNGTQYQSGGNASINFVATEAHTASAGGAKIIFNTTNNGATGSTEKVVIDQNGNVGVGVGAPTAKMDVNGGIKQPNYGIISAVRNSGGVTASMPWTNAYVLAHQGEMHQWVAGGPILQDSVTGCNAGPDAGVKFDSIATSWGGPYKVIFHTTGSNGAIHLEWSGWQVSLKNSAGTELAIGMGQVFATLHYDPAVSNWRVEHMFGRINNTNFTCW
notes: Bd1334 of Bdellovibrio bacteriovorus HD100, S914 to the C-terminus (W1151); also called Bd1334 from S914 onwards; source: E. coli BL21 RIPL (DE3), purified (Ni-NTA, TEV, Ni-NTA, Superdex 200)
stoichiometry N [5]: 3

B6: Bd2439_(837–1,107), tip of the NS74 MAT fibre protein Bd2439 (domain or fragment, Bdellovibrio bacteriovorus HD100, UniProt Q6MKF5 837-1107, looked up)
chain: GGLDIVNNATGDDNRDDLNIRTYGATETSSLIMLRARGTASAPAAVQTGDRLGGVLFRGWNGTAWMGSGQILSVAEENFTTAVKTNLQFHVGGAGEAMRISNTGNVGIGTTTTTEKLNVQGNVAVSGEITSVRSWGIKRGPTSFSANYINVWNSGYHVGSSIDCTTSTTGCRILKAGTYEIRCVQRAGTSGNSVYVGIALNGDRTALESRNDVLWNHSHTAYSGSYTESNFMGTLSANDLITCGAPVNTMAADLVYAVPAYNGTMQIKRVD
notes: Bd2439 of Bdellovibrio bacteriovorus HD100, G837-D1107 (β-helix N850-V968, R969 linker, TNF-like tip S970-D1107); pET26b construct; source: E. coli BL21 RIPL (DE3), purified (Ni-NTA, Superdex 200)
stoichiometry N [6]: 3

B7: Bd2734_(691–843), tip-only variant of the NS74 MAT fibre protein Bd2734 (domain or fragment, Bdellovibrio bacteriovorus HD100, UniProt Q6MJN8 691-843, looked up)
chain: TSTLMGSLTMLGKAGCQWEHANTSFASFSNVVACNTATVTGLASAPTEGKIPGIRFANLPAGDYELTVLIFSMYPVDAGVYCRYRLWDGTNFSGMAGAYESEIYQMTGLFSYATDQTNLTFYVQAQTLTATKNCRADITVPGQDKMQIYLKKL
notes: Bd2734 of Bdellovibrio bacteriovorus HD100 (843 aa), TNF-like tip, T691-L843; pET26b construct; The count of three copies rests on the discussion's word that trimerization is invariant in the six solved MATs; source: E. coli BL21 RIPL (DE3), purified (Ni-NTA, Superdex 200)
binding result [7]: binds

B8: Bd2740_(518–627), tip of the NS74 MAT fibre protein Bd2740 (domain or fragment, Bdellovibrio bacteriovorus HD100, UniProt Q6MJN2 518-627, looked up)
chain: APCDSGWTLINKGDPFCAKQQSVTGTNFATSMTQCLNNGGKLCDLQEAVGMCQTGFIPSNTTLWISQLADNSSAHVINCTSGSWSAGFYGFGVTVDGSNPILPYCCKGRR
notes: Bd2740 of Bdellovibrio bacteriovorus HD100 (627 aa), C-type lectin fold tip, residues 518-627 (the results print 517-626); Synthesised gene in pET29a; an Ala-Ser linker follows the hexa-His tag; source: E. coli BL21 RIPL (DE3), purified (Ni-NTA, Superdex 200)
stoichiometry N [8]: 3
